No end group written: not given here.
Experiments:
[1] = molecular target: T1, VE-cadherin fragment, P33151; experiment: plate assay read as absorbance at 450 nm, VE-cad(1-5) concentration varied (0-0.5 µM); format not described in the text
T1 chain: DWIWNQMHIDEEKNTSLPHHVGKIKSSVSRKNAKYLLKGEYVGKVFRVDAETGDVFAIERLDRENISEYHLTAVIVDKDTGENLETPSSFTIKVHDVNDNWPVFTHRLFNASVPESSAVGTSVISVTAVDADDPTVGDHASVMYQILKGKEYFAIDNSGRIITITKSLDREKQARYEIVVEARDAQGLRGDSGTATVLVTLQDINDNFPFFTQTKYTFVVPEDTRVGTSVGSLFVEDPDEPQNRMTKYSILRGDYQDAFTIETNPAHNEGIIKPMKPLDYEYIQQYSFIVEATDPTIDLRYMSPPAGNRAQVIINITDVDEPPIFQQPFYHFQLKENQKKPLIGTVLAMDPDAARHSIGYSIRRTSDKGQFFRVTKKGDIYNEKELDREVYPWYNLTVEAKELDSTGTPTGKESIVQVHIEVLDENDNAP

VE-cadherin fragment [2] = molecular target: T2, VE-cadherin fragment (UniProt P33151 48-477, limits assumed); experiment: SPR (BIAcore), ratio of Kd values, reference β15-42
T2 construct: also called VE-caherin; immobilized VE-cadherin fragment
T2 sequence (looked up): T1 chain
Description: (§1) To test binding activities of fibrin beta chain derived peptides of the invention to VE-caherin, surface plasmon resonance (SPR) methods are, for example, used. SPR experiments are performed using, for example, a BIAcore 3000 biosensor (BIAcore AB, Uppsala, Sweden), which can be used to measure the association/dissociation of peptides or proteins in real-time (see, for example, Karlsson, R., and Falt, A. J. Immunol. Methods (1997) 200, 121-133; Hall, D. Anal. Biochem. (2001) 288, 109-125; see also Gorlatov et al. Biochemistry (2002) 41, 4107-4116 for other VE-cadherin binding assays including, for example, SPR IAsys Analysis based assays and ELISA based assays). An exemplary method is described in the following passage. VE-cadherin fragment is covalently coupled via epsilon-amino groups to the activated surface of a CM5 biosensor chip by the procedure described by, for example, Karlsson, R., and Falt, A. (J. Immunol. Methods (1997) 200, 121-133; see also Gorlatov et al. Biochemistry (2002) 41, 4107-4116). […] Samples comprising, for example, fibrin beta chain derived peptides β15-42, β15-64, and (β15-66)2, at different concentrations are injected in duplicate in at least three separate experiments and the association/dissociation between the immobilized and the added peptides is monitored as the change in the SPR response. […]

VE-cadherin fragment [3] = molecular target: T2, VE-cadherin fragment; experiment: SPR (BIAcore), VE-cadherin fragment immobilized, peptide added up to 200 nM; dimeric peptide, added up to 200 nM
Description: as §1

VE-cadherin fragment [4] = molecular target: T2, VE-cadherin fragment; experiment: not stated on the sheet; the legend calls it the dissociation constant for the interaction with VE-cadherin
VE-cadherin fragment [5] = molecular target: T2, VE-cadherin fragment; experiment: as above; remark: listed apart in the source
VE-cadherin fragment [6] = molecular target: T2, VE-cadherin fragment; experiment: SPR (BIAcore), VE-cadherin fragment immobilized; monomeric peptide
Description: as §1

B1: (β15-40)2 dimer peptide (peptide)
peptide: GHRPLDKKREEAPSLRPAPPPISYCG
modifications: also: homodimer linked through added Cys25
EC50 (read off the curve) [1]: 40 nM

B2: (β15-66)2 dimer peptide (peptide)
peptide: GHRPLDKKREEAPSLRPAPPPISGGGYRARPAKAAATQKKVERKAPDAGGCG
modifications: also: homodimer, Cys65-Cys65 disulfide
notes: Homodimer of two β15-66 chains, disulfide-linked via Cys65; Gly66 is not natural; also called dimeric (β15-66)2
fold increase in affinity against β15-42 (VE-cadherin fragment [2]): 3600 fold
Kd (VE-cadherin fragment [3]): 70 nM
Kd (VE-cadherin fragment [4]): 27 nM

B3: (β15-44)2 dimer peptide (peptide)
peptide: GHRPLDKKREEAPSLRPAPPPISGGGYRCG
modifications: also: homodimer, Cys43-Cys43 disulfide
notes: Synthetic homodimer of two identical 30-residue chains, linked by a Cys43-Cys43 disulfide bond; also called dimeric (β15-44)2
Kd (VE-cadherin fragment [5]): 21 nM

B4: β15-42 monomeric peptide (peptide)
peptide: GHRPLDKKREEAPSLRPAPPPISGGGYR
notes: also called monomeric β15-42
Kd (VE-cadherin fragment [6]): 252000 nM

Reference: patent publication US20120289467A1 (UNIVERSITY OF MARYLAND BALTIMORE, published 2012)
